# Reference: article PMC12107181 (2025)
# B1: AD-TCP3 [Arabidopsis] / BD-COP1 [Arabidopsis] (parent complex)
# chain 1: MAPDNDHFLDSPSPPLLEMRHHQSATENGGGCGEIVEVQGGHIVRSTGRKDRHSKVCTAKGPRDRRVRLSAPTAIQFYDVQDRLGFDRPSKAVDWLITKAKSAIDDLAQLPPWNPADTLRQHAAAAANAKPRKTKTLISPPPPQPEETEHHRIGEEEDNESSFLPASMDSDSIADTIKSFFPVASTQQSYHHQPPSRGNTQNQDLLRLSLQSFQNGPPFPNQTEPALFSGQSNNQLAFDSSTASWEQSHQSPEFGKIQRLVSWNNVGAAESAGSTGGFVFASPSSLHPVYSQSQLLSQRGPLQSINTPMIRAWFDPHHHHHHHQQSMTTDDLHHHHPYHIPPGIHQSAIPGIAFASSGEFSGFRIPARFQGEQEEHGGDNKPSSASSDSRH
# chain 2: MEEISTDPVVPAVKPDPRTSSVGEGANRHENDDGGSGGSEIGAPDLDKDLLCPICMQIIKDAFLTACGHSFCYMCIITHLRNKSDCPCCSQHLTNNQLYPNFLLDKLLKKTSARHVSKTASPLDQFREALQRGCDVSIKEVDNLLTLLAERKRKMEQEEAERNMQILLDFLHCLRKQKVDELNEVQTDLQYIKEDINAVERHRIDLYRARDRYSVKLRMLGDDPSTRNAWPHEKNQIGFNSNSLSIRGGNFVGNYQNKKVEGKAQGSSHGLPKKDALSGSDSQSLNQSTVSMARKKRIHAQFNDLQECYLQKRRQLADQPNSKQENDKSVVRREGYSNGLADFQSVLTTFTRYSRLRVIAEIRHGDIFHSANIVSSIEFDRDDELFATAGVSRCIKVFDFSSVVNEPADMQCPIVEMSTRSKLSCLSWNKHEKNHIASSDYEGIVTVWDVTTRQSLMEYEEHEKRAWSVDFSRTEPSMLVSGSDDCKVKVWCTRQEASVINIDMKANICCVKYNPGSSNYIAVGSADHHIHYYDLRNISQPLHVFSGHKKAVSYVKFLSNNELASASTDSTLRLWDVKDNLPVRTFRGHTNEKNFVGLTVNSEYLACGSETNEVYVYHKEITRPVTSHRFGSPDMDDAEEEAGSYFISAVCWKSDSPTMLTANSQGTIKVLVLAA
# B2: AD-PAP2 [Arabidopsis] / BD-COP1 [Arabidopsis] (parent complex)
# chain 1: MEGSSKGLRKGAWTAEEDSLLRLCIDKYGEGKWHQVPLRAGLNRCRKSCRLRWLNYLKPSIKRGRLSNDEVDLLLRLHKLLGNRWSLIAGRLPGRTANDVKNYWNTHLSKKHESSCCKSKMKKKNIISPPTTPVQKIGVFKPRPRSFSVNNGCSHLNGLPEVDLIPSCLGLKKNNVCENSITCNKDDEKDDFVNNLMNGDNMWLENLLGENQEADAIVPEATTAEHGATLAFDVEQLWSLFDGETVELD
# chain 2: B1 chain 2
# B3: AD-TCP10 [Arabidopsis] / BD-COP1 [Arabidopsis] (parent complex)
# chain 1: MGLKGYSVGEGGGEIVEVQGGHIIRATGRKDRHSKVFTSKGPRDRRVRLSAHTAIQFYDVQDRLGYDRPSKAVDWLIKKAKTAIDKLELGETTTTTTRQEPVNTKPESPTLVFQRENNDQTQFVAANLDPEDAMKTFFPATTTTNGGGGTNINFQNYPHQDDNNMVSRTTTPPPNLSQDLGLSLHPFQGNNNTVVVPETNNFTTTHFDTFGRISGWNHHDLTMTSSSSSEHQQQEQEERSNGGFMVNHHPHHHHHQPSMMTLLNSQQQQVFLGGQQQQQQRGTLQSSLFPHSFRSWDHHQTTSDHHHHQNQASSMFASSSQYGSHGMMMMQGLSFPNTTRLLHGEEATQPNSSSSPPNSHL
# chain 2: B1 chain 2
# Variants of: B1
# Assay: Y2H assay (β-galactosidase activity); parent: 2.7; read off a plot
row,response,Variant
1,~0.86 Miller units,chain 2 F595A

# Variants of: B1
# Assay: Y2H assay (β-galactosidase activity); parent: 3; read off a plot
row,response,Variant
1,~0.86 Miller units,chain 2 W467A

# Variants of: B2
# Assay: Y2H assay (β-galactosidase activity); parent: 15; read off a plot
row,response,Variant
1,~2.1 Miller units,chain 2 W467A

# Variants of: B2
# Assay: Y2H assay (β-galactosidase activity); parent: 21; read off a plot
row,response,Variant
1,~3.6 Miller units,chain 2 F595A

# Variants of: B3
# Assay: Y2H assay (β-galactosidase activity); parent: 0.92; read off a plot
row,response,Variant
1,~1.1 Miller units,"chain 1 V196A, chain 1 P197A"
